The record followed here is patent US20190127480A1 (Regeneron, published 2019).

The target of this test is T1, Soluble heterodimeric CD3 protein (hCD3-epsilon/hCD3-delta) with a human Fc tag (hFcΔAdp/hFc) or a mouse Fc … (human, UniProt P07766 23-126; P04234 22-105).
T1 construct: also called hCD3ε/δ; not shown: Fc tag: human (hFcΔAdp/hFc); which tag was used in Ta
Kind of test: SPR Biacore, 25 C, antibody-capture format. As for the experimental part: Measurements were conducted on a T200 Biacore™ instrument.
Soluble heterodimeric CD3 protein (hCD3-epsilon/hCD3-delta; SEQ ID NOs:1652/1653) with either a human Fc tag (hFcΔAdp/hFc; SEQ ID NOs:1683/1684) or a mouse Fc tag (mFcΔAdp/mFc; SEQ ID NOs:1685/1686) was injected over the antibody captured surface and the binding response was recorded. Heterodimeric CD3 protein was purified using the method described in Davis et al. (US2010/0331527).
Kinetic association (kₐ) and dissociation (kd) rate constants were determined by processing and fitting the data to a 1:1 binding model using Scrubber 2.0 curve fitting software. Binding dissociation equilibrium constants (KD) and dissociative half-lives (t₁₁₂) were calculated from the kinetic rate constants as: KD (M)=kd/kₐ; and t_{1/2} (min)=(ln 2/(60*kd). NT=not tested; NB=no binding observed.

T1 sequence (P07766 23-126 limits assumed, stated change not applied, chain 1 of 2): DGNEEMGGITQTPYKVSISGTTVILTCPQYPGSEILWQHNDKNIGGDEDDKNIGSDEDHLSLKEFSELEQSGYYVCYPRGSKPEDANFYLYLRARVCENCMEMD
T1 sequence (P04234 22-105 limits assumed, stated change not applied, chain 2 of 2): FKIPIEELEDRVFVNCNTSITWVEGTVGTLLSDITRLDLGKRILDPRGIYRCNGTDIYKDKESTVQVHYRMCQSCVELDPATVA

B1: H2M2706N (antibody, V domains shown)
VH: QVQLVESGGGVVQPGRSLRLSCAASGFTFRSYAMHWVRQAPGKGLEWVAMVYYDGNNQYYADSVRGRFTISRDNSKNTLYLQMNSLRADDTAVYFCARGPGYNWLDPWGQGTLVTVSS
VL: EIVMTQSPATLSVSPGERATLSCRASQSVSRNLAWYQQKPGQAPRLLIYGASTRATGIPARFSGSGSGTDFTLTISSLQSEDFAVYYCQQYNNWPLTFGGGTKVVIK
notes: Hybridoma antibody, human variable regions, mouse IgG2 Fc
For B1, binding was characterised by a dissociation constant (Kd) of 135 nM, the “T½” value was determined as 3 min, the koff came to 0.00444 s⁻¹ and the kon came out at 32900 M⁻¹ s⁻¹.

B2: H2M2862N (antibody, V domains shown)
VH: QVQLVESGGGVVQPGRSLRLSCAASGFTFRSYGMHWVRQAPGKGLEWVAMIYYDGNNKKYADSVRGRFTISRDNSKNTLYLQMNSLRVEDTAVYFCARGPGYNWLDPWGQGTLVTVSS
VL: EIVMTQSPATLSVSPGERATLSCRASQSVSRNLAWYQQKPGQAPRLLIYGASTRATDIPARFSGSGSGTEFILNISSLQSEDFALYYCQQYSNWPLTFGGGTEVEIK
notes: as for B1
Regarding B2, the affinity, expressed as Kd, was 80.7 nM; the “T½” value turned out to be 4 min; the koff is 0.003 s⁻¹; the kon turned out to be 37200 M⁻¹ s⁻¹.

B3: H2M2708N (antibody, V domains shown)
VH: QVQLVESGGGVVQPGRSLRLSCAASGFTFRSFGMHWVRQAPGRGLEWVAMIYFDGKNKYYADSVRGRFTISRDNSKNTLYLEMSSLRAEDTAVYFCARGPGYNWLDPWGQGTLVTVSS
VL: EIVMTQSPATLSVSPGERVTLSCRASQSISRNLAWYQQKPGQAPRLLIYGASTRATGVPARFSGSGSGTEFTLTISSLQSEDFAVFHCQQYNNRPLTFGGGTEVEIK
notes: as for B1
Take B3: the Kd stood at 8.82 nM, the “T½” value amounted to 19 min, the koff was 0.000612 s⁻¹ and the kon was found to be 69400 M⁻¹ s⁻¹.

B4: H1M2712N (antibody, V domains shown)
VH: EVQLVESGGGLVQPGGSLRLSCAATGFTFDDFTMHWVRQAPGKGLEWVSGISWNSGSIGYVDSVKGRFTISRDNAKNSLYLQMNSLRAEDTALYYCAKDNSGYGYYYYGMDVWGQGTTVTVSS
VL: EIVMTQSPATLSVSPGERATLSCRASHSVSRNSAWYQQKPGQAPRLLIYGASTRATGIPARFSGSGSGTEFTLTISSLQSEDFAIYYCQQYNNWPLTFGGGTKVEIK
notes: Mouse IgG1 Fc form
Regarding B4, the affinity, expressed as Kd, was 23.5 nM; the “T½” value amounted to 53 min; the koff came out at 0.000219 s⁻¹; the kon amounted to 9320 M⁻¹ s⁻¹.

B5: H2M2778N (antibody, V domains shown)
VH: EVQLVESGGGLVQPGRSLRLSCAASGFTFDDYSMHWVRQAPGKGLEWVSGISWNSRSIDYADSVKGRFTISRDNAKNSLYLQMNSLRAEDTALYYCVKDNSGYGRYYYYGMDVWGQGTTVSVSS
VL: KIVMTQSPATLSVSPGERATLSCRASQSVSGNLAWYQQKPGQAPRLLIYGASTRATSIPARFSGSGSGTEFTLTISSLQSEDFAVYFCQHYYNWPLTFGGGTKVEIR
notes: as for B1
With B5, binding was put at a Kd of 8.9 nM, the “T½” value worked out at 61 min, the koff is 0.000189 s⁻¹ and the kon was 21300 M⁻¹ s⁻¹.

B6: H2M2777N (antibody, V domains shown)
VH: QVQLVESGGGVVQPGRSLRLSCIASGFTFRSYGMHWVRQAPGKGLEWVAMIYYDGNNKYYADSVRGRFTISRDNSKNTLYLQMNSLRADDTAVYFCARGPGYNWLDPWGQGTLVTVSS
VL: EIVMTQSPATLSVSPGERATLSCRASQSVSSNLAWYQQKPGQAPRLLIYGASTRATGIPARFSGSGSGTEFTLTISSLQSEDFAVYYCQQYNNRPLTFGGGTKVEIK
notes: as for B1
For the molecule B6, binding was put at a Kd of 43.9 nM, the “T½” value is 7 min, the koff turned out to be 0.00163 s⁻¹ and the kon amounted to 37000 M⁻¹ s⁻¹.

B7: H2M2710N (antibody, V domains shown)
VH: QVQLVESGGGVVQPGRSLRLSCAASGFTFRSFGMHWVRQAPGRGLEWVAMIYFDGKNKYYADSVRGRFTISRDNSKNTLYLEMSSLRAEDTAVYFCARGPGYNWLDPWGQGTLVTVSS
VL: EIVMTQSPATLSVSPGERATLSCRASQSVSRNLAWYQQKPGQAPRLLIYGASTRATGVPARFSGSGSGTEFTLTISSLQSEDFAVFHCQQYNNRPLTFGGGTEVEIK
notes: as for B1
As to B7, the Kd was found to be 11.2 nM, the “T½” value was 15 min, the koff was 0.000753 s⁻¹ and the kon came to 67200 M⁻¹ s⁻¹.

B8: H2M2775N (antibody, V domains shown)
VH: QVQLVESGGGVVQPGRSLRLSCAASGFTFRSFGMHWVRQAPGRGLEWVAMIYFDGKNKYYADSVRGRFTISRDNSKNTLYLEMSSLRAEDTAVYFCARGPGYNWLDPWGQGTLVTVSS
VL: EIVMTQSPATLSVSPGERVILSCRASQSISRNLAWYQQKPGQAPRLLIYGATTRATGVPARFSGSGSGTEFTLTISSLQSEDFAVFYCQQYNNRPLTFGGGTEVEIK
notes: as for B1
In the case of B8, binding was put at a Kd of 8.98 nM, the “T½” value stood at 18 min, the koff was determined as 0.000626 s⁻¹ and the kon amounted to 69700 M⁻¹ s⁻¹.

B9: H2M2774N (antibody, V domains shown)
VH: QVQLVESGGGVVQPGRSLRLSCVASGFTFRSYGMHWVRQAPGKGLQWVAMIYYDGKNKYYADSVRGRFTISRDNSKNTLYLQMNSLRAEDTAMYFCARGPGYNWLDPWGQGTLVTVSS
VL: EIVMTQSPATLSVSPGERATLSCRASQRISSNLAWYQQKPGQAPRLLIYGASTRATGSPARFSGSGSGTEFTLTISSLQSEDVAVYYCQQHNNWPLTFGGGTKVEIK
notes: as for B1
On to B9, for which the Kd stood at 11.8 nM, the “T½” value was 13 min, the koff amounted to 0.000918 s⁻¹ and the kon is 77900 M⁻¹ s⁻¹.

B10: H2M2886N (antibody, V domains shown)
VH: QVQLVESGGGVVQPGRSLRLSCAASGFTFRSFGMHWVRQAPGRGLEWVAMIYFDGKNKYYADSVRGRFTISRDNSKNTLYLEMSSLRAEDTAVYFCARGPGYNWLDPWGQGTLVTVSS
VL: EIVMTQSPATLSVSPGERVILSCRASQSISRNLAWYQQKPGQAPRLLIYGATTRATGVPARFSGSGSGTEFTLTISSLQSEDFAVFYCQQYNNRPLTFGGGTEVEIK
notes: as for B1
Turning to B10, binding was characterised by a dissociation constant (Kd) of 8.96 nM, the “T½” value worked out at 18 min, the koff was 0.000653 s⁻¹ and the kon was 72900 M⁻¹ s⁻¹.

B11: H2M2711N (antibody, V domains shown)
VH: QVQLVESGGGVVQPGRSLRLSCAASGFTFRSFGMHWVRQAPGRGLEWVAMIYFDGKNKYYADSVRGRFTISRDNSKNTLYLEMSSLRAEDTAVYFCARGPGYNWLDPWGQGTLVTVSS
VL: EIVMTQSPATLSVSPGERATLSCRASQSVSRNLAWYQQKPGQAPRLLIYGASTRATGVPARFSGSGSGTEFTLTISSLQSEDFAVFHCQQYNNRPLTFGGGTEVEIK
notes: as for B1
Take B11: binding was put at a Kd of 11.4 nM, the “T½” value turned out to be 15 min, the koff was determined as 0.000767 s⁻¹ and the kon was 67200 M⁻¹ s⁻¹.

B12: H2M2885N (antibody, V domains shown)
VH: QVQLVESGGGVVQPGRSLRLSCAASGFTFRSFGMHWVRQAPGRGLEWVAMIYFDGKNKYYADSVRGRFTISRDNSKNTLYLEMSSLRAEDTAVYFCARGPGYNWLDPWGQGTLVTVSS
VL: EIVMTQSPATLSVSPGERVILSCRASQSISRNLAWYQQKPGQAPRLLIYGATTRATGVPARFSGSGSGTEFTLTISSLQSEDFAVFYCQQYNNRPLTFGGGTEVEIK
notes: as for B1
Regarding B12, the Kd worked out at 9.54 nM, the “T½” value amounted to 18 min, the koff came to 0.000651 s⁻¹ and the kon stood at 68200 M⁻¹ s⁻¹.

B13: H1M3549N (antibody, V domains shown)
VH: EVQLVESGGGLVQPGRSLRLSCVASGFPFADYTMHWVRQAPGKGLEWVSDISWNSGSIGYADSVKGRFTISRDNAKNSLYLQMNSLRTEDTALYYCAKDMSGYAHYFYYGMDVWGQGTTVTVSS
VL: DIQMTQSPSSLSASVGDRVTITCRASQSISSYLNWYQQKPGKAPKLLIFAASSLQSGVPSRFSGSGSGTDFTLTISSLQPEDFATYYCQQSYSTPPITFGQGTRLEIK
notes: Hybridoma antibody, human variable regions, mouse IgG1 Fc
Regarding B13, the Kd is 77.6 nM, the “T½” value was found to be 13 min, the koff stood at 0.000919 s⁻¹ and the kon came out at 11800 M⁻¹ s⁻¹.

B14: H1M3613N (antibody, V domains shown)
VH: EVQLVESGGGLVQPGRSLKLSCTASGFTFADYTMHWVRQGPGKGLEWVSDISWNSGSKGYADSVKGRFTISRDNAKNSLYLQMNSLRTEDTALYYCAKDMSGYAHYYYYALDVWGQGTTVTVSS
VL: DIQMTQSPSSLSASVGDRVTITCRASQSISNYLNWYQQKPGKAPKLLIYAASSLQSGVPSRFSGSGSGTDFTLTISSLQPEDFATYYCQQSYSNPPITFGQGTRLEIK
notes: as for B13
Consider B14, for which binding was characterised by a dissociation constant (Kd) of 15.7 nM, the “T½” value stood at 38 min, the koff is 0.000304 s⁻¹ and the kon worked out at 19300 M⁻¹ s⁻¹.

B15: H1M3542N (antibody, V domains shown)
VH: EVQLVESGGGLVQPGRSLRLSCVASGFPFADYTMHWVRQAPGKGLEWVSDISWNSGSKGYADSVKGRFTISRDNAKNSLYLQMNSLRTEDTAFYYCAKDMSGYAHYFYYGMDVWGQGTTVTVSS
VL: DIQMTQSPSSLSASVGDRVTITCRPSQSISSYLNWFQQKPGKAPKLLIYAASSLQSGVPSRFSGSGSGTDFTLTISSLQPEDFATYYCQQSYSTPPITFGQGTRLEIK
notes: as for B13
In the case of B15, the dissociation constant Kd was 21.4 nM, the “T½” value came out at 23 min, the koff came out at 0.000508 s⁻¹ and the kon is 23700 M⁻¹ s⁻¹.

B16: H2M2779N (antibody, V domains shown)
VH: EVQLVESGGGLVQPGGSLRLSCAATGFTFDDFTMHWVRQAPGKGLEWVSGISWNSGSIGYVDSVKGRFTISRDNAKNSLYLQMNSLRAEDTALYYCAKDNSGYGYYYYGMDVWGQGTTVTVSS
VL: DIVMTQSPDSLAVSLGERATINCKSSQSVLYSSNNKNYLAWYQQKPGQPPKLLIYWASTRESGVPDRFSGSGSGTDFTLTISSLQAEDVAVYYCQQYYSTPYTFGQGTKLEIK
notes: as for B1
B16: binding was put at a Kd of 10.5 nM, the “T½” value is 51 min, the koff came out at 0.000228 s⁻¹ and the kon was determined as 21800 M⁻¹ s⁻¹.

B17: H2M3540N (antibody, V domains shown)
VH: QVHLEESGGGVVQPGRSLRLSCSASGFTFSSYAMHWVRQAPGKGLEWVAVIWYDGTNKYYLDSVKGRFTISRDNSKNTLFLQMNSLRAEDTAVYYCARDRGSIITHWGQGTLVTVSS
VL: DIQMTQSPSSLSASIGDRVTITCRASQNISSYLNWYQQKPGKAPKLLIYAASSLQSGVPSRFSGSGSGTDFTLTISSLQPEDFATYYCQQTYSTPPITFGQGTRLEIK
notes: as for B1
On to B17, for which the Kd was determined as 16.2 nM, the “T½” value was 19 min, the koff amounted to 0.000611 s⁻¹ and the kon was 37700 M⁻¹ s⁻¹.
